Data from patent EP2204447B1.

Target: streptavidin (UniProt P22629)
Assay: capture of cells on streptavidin coated magnetic beads, before selection

UniProt P22629, sequence (P22629 37-163 limits assumed): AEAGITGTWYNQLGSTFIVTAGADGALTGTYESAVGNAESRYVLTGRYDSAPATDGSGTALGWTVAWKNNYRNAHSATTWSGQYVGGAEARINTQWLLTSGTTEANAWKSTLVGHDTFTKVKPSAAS

Ramos IgM (immunoglobulin of the unselected / wild-type Ramos Burkitt lymphoma cell line) (antibody)
proportion of cells which bind to the beads: 0.02%
